The results in this text go back to US20240218064A1 (AstraZeneca / MedImmune, published 2024).

By Kd is commonly meant a measure of binding affinity in units of concentration. By IC50 is commonly meant the point on the concentration scale where inhibition reaches its midpoint.

In assay [1] the target is cynomolgus monkey LOX-1 (cynomolgus monkey, UniProt A0A2K5VQ73 79-291). In words: BIAcore (SPR). On the technique in general: Surface plasmon resonance follows binding to a sensor surface in real time, without labels.
The target of assay [2] is T1, human LOX-1 (lectin-like oxidized low density lipoprotein receptor-1) (human, UniProt P78380 61-273). Nature of the assay: BIAcore (SPR); Fab, not full mAb; LOX-1.
The target in assay [3] is T1, human LOX-1 (lectin-like oxidized low …). In words: in vitro inhibition of ligand binding to human LOX-1; competitor ligand AGE-BSA; ligand AGE-BSA. The text has this:
(§1) FIG. 3. MEDI6570 inhibition of ligand binding. AGE-BSA=advanced glycation end products-bovine serum albumin; CRP=c-reactive protein; IgG-immunoglobulin G; OxLDL=oxidized low-density lipoprotein. Antibodies were titrated across a 384 well dilution plate in assay buffer (PBS/0.1% BSA/0.01% Tween 20) over 24 points in duplicate.
(§2) The ability of MEDI6570 to inhibit binding of the LOX-1 ligands oxLDL, AGE (advanced glycation end products, in this case glycated bovine serum albumin, BSA) and CRP was determined using in vitro assays. AGEs are known ligands of LOX-1. They commonly occur in patients that have poorly regulated levels of blood glucose, which is a risk factor for cardiovascular disease.

Assay [4] concerns the target T2, soluble LOX-1 (sLOX-1) in sera of participants with T2DM (human, UniProt P78380 89-273, limits assumed).
T2 construct: domain: cleaved soluble domain of LOX-1; Endogenous protein in patient serum; also called soluble lectin-like oxidized low-density lipoprotein receptor 1
Nature of the assay: sLOX-1 in sera of participants with T2DM; the paragraph names BIAcore, the method for this value is not made clear; full mAb; sLOX-1 in sera of participants with T2DM.

Assay [5] concerns the target T1, human LOX-1 (lectin-like oxidized low …). In words: in vitro inhibition of ligand binding to human LOX-1; competitor ligand CRP; ligand CRP.
From the text: as §1, §2

The target is the same in assay [6]. Nature of the assay: in vitro inhibition of ligand binding to human LOX-1; competitor ligand oxLDL; ligand oxLDL.
From the text: as §1, §2

B1: MEDI6570 Fab (Fab, V domains shown)
VH: QVQLVQSGAEVKKPGASVKVSCKVSGYTLTELSMHWVRQAPGKGLEWMGGFDPEDFKYHTHQKFQGRVTMTEDTSTDTAYMELSSLRSEDTAVYYCALVWGTQGKGVRGWDYYYGMDVWGQGTTVTVSS
VL: QSVVTQPPSVSGAPGQRVTISCTGSSSNIGAGYDVHWYQQLPGTAPKLLIYGNSNRPSGVPDRFSGSKSGTSASLAITGLQAEDEADYYCQSYDSSLSGWVFGGGTKLTVL
notes: also called Fab of the antibody MEDI6570
With B1, the Kd in assay [1] was 116 pM; in assay [2], 56 pM.

B2: MEDI6570 (antibody, human IgG1, lambda, V domains shown)
VH: B1 VH
VL: QSVVTQPPSVSGAPGQRVTISCTGSSSNIGAGYDVHWYQQLPGTAPKLLIYGNSNRPSGVPDRFSGSKSGTSASLAITGLQAEDEADYYCQSYDSSLSGWVFGGGTKLTVLG
notes: Fully human IgG1-lambda; also called LX5140110-IgG1-TM
On to B2, for which the IC50 came to 540 pM in assay [3], 4800 pM in assay [5] and 340 pM in assay [6]. Besides, in assay [4], the Kd is approximately 173 pM.
